Reference: patent US20120100530

Target: T1, EcoExo I C98S/C306S/C330T (ONLD0366) C98S/C306S/C330T (Escherichia coli) (UniProt P04995)
T1 sequence: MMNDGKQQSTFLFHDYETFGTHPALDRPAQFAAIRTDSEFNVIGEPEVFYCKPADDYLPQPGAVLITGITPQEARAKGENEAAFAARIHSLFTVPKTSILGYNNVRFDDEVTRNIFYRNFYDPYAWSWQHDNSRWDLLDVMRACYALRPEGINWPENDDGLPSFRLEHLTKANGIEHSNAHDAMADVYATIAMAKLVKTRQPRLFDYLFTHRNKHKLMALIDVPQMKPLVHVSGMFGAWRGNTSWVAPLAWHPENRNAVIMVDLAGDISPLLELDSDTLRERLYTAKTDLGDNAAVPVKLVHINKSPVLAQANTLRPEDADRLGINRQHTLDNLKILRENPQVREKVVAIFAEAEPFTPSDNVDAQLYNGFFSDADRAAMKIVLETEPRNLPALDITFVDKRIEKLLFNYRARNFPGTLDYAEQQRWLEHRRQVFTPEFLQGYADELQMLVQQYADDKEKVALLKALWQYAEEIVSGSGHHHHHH
Assay: cleavage_in_vitro
Details: fluorescein-dT at position 15, BHQ1 on dT at position 1; relative activity of mutants stated higher than wild type

Exo I assay DNA template was tested, and the activity (relative to wild type) was greater than 1.
